US20190353647A1 (UNIVERSITE DE BORDEAUX, published 2019)

Target: YFP-CaM (human, UniProt P0DP23 2-149)
Experiment: BRET titration curves in live HEK293T cells

B1: TRPV1-Luc (receptor)
chain: MKKWSSTDLGAAADPLQKDTCPDPLDGDPNSRPPPAKPQLSTAKSRTRLFGKGDSEEAFPVDCPHEEGELDSCPTITVSPVITIQRPGDGPTGARLLSQDSVAASTEKTLRLYDRRSIFEAVAQNNCQDLESLLLFLQKSKKHLTDNEFKDPETGKTCLLKAMLNLHDGQNTTIPLLLEIARQTDSLKELVNASYTDSYYKGQTALHIAIERRNMALVTLLVENGADVQAAAHGDFFKKTKGRPGFYFGELPLSLAACTNQLGIVKFLLQNSWQTADISARDSVGNTVLHALVEVADNTADNTKFVTSMYNEILMLGAKLHPTLKLEELTNKKGMTPLALAAGTGKIGVLAYILQREIQEPECRHLSRKFTEWAYGPVHSSLYDLSCIDTCEKNSVLEVIAYSSSETPNRHDMLLVEPLNRLLQDKWDRFVKRIFYFNFLVYCLYMIIFTMAAYYRPVDGLPPFKMEKTGDYFRVTGEILSVLGGVYFFFRGIQYFLQRRPSMKTLFVDSYSEMLFFLQSLFMLATVVLYFSHLKEYVASMVFSLALGWTNMLYYTRGFQQMGIYAVMIEKMILRDLCRFMFVYIVFLFGFSTAVVTLIEDGKNDSLPSESTSHRWRGPACRPPDSSYNSLYSTCLELFKFTIGMGDLEFTENYDFKAVFIILLLAYVILTYILLLNMLIALMGETVNKIAQESKNIWKLQRAITILDTEKSFLKCMRKAFRSGKLLQVGYTPDGKDDYRWCFRVDEVNWTTWNTNVGIINEDPGNCEGVKRTLSFSLRSSRVSGRHWKNFALVPLLREASARDRQSAQPEEVYLRQFSGSLKPEDAEVFKSPAASGEKVPVNSGGGGS
notes: whole, on cells; BRET donor fusion, Luc at the C-terminus of TRPV1; transiently expressed in live HEK293T cells; also called hTRPV1-Luc; not shown: Renilla Luciferase II (Luc, Luc2, a mutant of Renilla reniformis luciferase)
- binding result: binds
